From a protein production outcome set (Wang et al. 2014)

Assay: label from the status in PepcDB records
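Note: failed if final PepcDB status was selected cloned or expressed and not failed if soluble or beyond.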

**Q.** Which protein production does the source give for “MNMQKLRIELGEETNDELYDLLLLADPSKDIVDEYLERGECYTAWAGDELAGVYVLLKTRPQTVEIVNIAVKESLQKKGFGKQLVLDAIEKAKKLGADTIEIGTGNSSIHQLSLYQKCGFRIQAIDHDFFLRHYDEDIFENGIQCRDMVRLYLDLLEHHHHHH” here?
**A.** The protein production was “not failed”.

**Q.** With “MNMVEPLAVAILIAYLVALLLIGLLSSKKSSVGMTDFFIAGRNLNKWTVALSAVSSGRSAWLVLGVTGTAYATGLDAVWAVAGYITVEVFLFFYVARRFRAYSEQTGSITIPDILETRFNDKTHILRGGSAFIIMFFMIAYVASQLVAGGGAFATSMGVSSSTGMWVTAVILLAYTMLGGFHAVSKTDVVQAGFMFVSLVILPVVAIIGLGGFDPLLQVMHTEGGGFTSPFAFGFGAVIGLLGIGFGSPGNPHILVRYMSLKNVKEMRQAALISSVWNVLMGWGAVMIGLAGRAYFPDVSLLPNGDQEQVFLMLGSEILHPLFFGFLLVAVLAAIMSSADSQLLVGSSAFVRDIYQKMFRRNRKLSQKKLVRLSRLTTVVFMGLSLILAFTAQEFVFWMVLFAFGGLGACFGPALLLSFYWKGVTRQGVLWGMIAGLLTVILVKQQPQWTYAFLPDVKELLNTYFFGITYEAVPGFIVATTITVVISLFTKRPKHAKQIIERLNESA” as the sequence, how does the protein production read?
**A.** Its protein production is “failed”.

**Q.** For “MNNAMQLLQPYPFKKLRALLGSVTPNPEKRPVALSIGEPKHRSPDFVAKALADNLDQMAVYPTTLGIPALREAIAGWCNRRFGVPQGWIDPARNVLPVNGTREALFAFTQTVVNRSDDGLVVSPNPFYQIYEGAAFLAGAQPHYLPCLSDNGFNPDFDAVDADIWKRCQILFLCSPGNPTGALIPVETLKKLIALADEHDFVIAADECYSELYFDEQTPPPGLLSACVELGRQDFKRCVVFHSLSKRSNLPGLRSGFVAGDAEILKAFLLYRTYHGCAMPVQTQLASIAAWNDEEHVRANRDLYREKFDAVLDILAPVLDVQRPDGGFYLWPNVGTDDAAFCRDLFVDQHVTAVPGSYLSREVDGVNPGAGRVRLALVAPLAECIEAAERIRAFVLK”, which protein production is on record?
**A.** The protein production was “not failed”.

**Q.** With “MNNENMVRVFYVLLMGLGFPIMRFMSIHFETLNNNSVRFLSGGSLFVIICLIKFRSELKKIIGEPKIILYLFIYLFILGIFMTGNMFFFINGLKYTSALAGSIFGILAMPLAIIIAGIFFKDERDRIRQKEFYIGELLAIIGSLIFVINSSNNDGNTDFFLGAIFLFTAIFIQSVQNLIVKKVAKKINAVVISASTATISGVLFLCLAFNTKQIYLLQDVGIGMLIGLVCAGFYGMLTGMLMAFYIVQKQGITVFNILQLLIPLSTAIIGYLTLDERINIYQGISGIIVIIGCVLALKRKNKEC” as the sequence, how does the protein production read?
**A.** Its protein production is “failed”.

**Q.** With “MNNFTYEKLHNNLQYLKLNTIEELLDNCLEIAARDSKTTMEVLDYLFEQEKKHREAAAIERRMKSAGFPVKKMLEEFDFEFQSSINKKVIEDLATLRFVHNAENIVLLGPPGVGKSHLAIALGIEAVKAGISVHFTNTGNLIERLKIANREGILEKKIRDLMKFKVLIIDEIGYLPFDDEGAHCLFQLISRRYEKSSTILTSNKSYGEWGEIFKDHVIAAALLDRILHHCTTINIKGESYRLKERKKQGIKTGLIRHNSTEILENLEHHHHHH” as the sequence, how does the protein production read?
**A.** Its protein production is “not failed”.

**Q.** For “MNNIRLLNQNDLDSYIELMKFGHHNYEWDRYYLENVSIDRLKTILSNHTDYWNIFGAFEDDELVATCTLKQMNYVGKCHKAILENNFVKNNDEIVNRELINHIIQYAKEQNIETLMIAIASNNISAKVFFSSIGFENLAFEKNASKIGNEYFDENWLIYSTTE”, which protein production is on record?
**A.** The protein production was “failed”.

**Q.** Which protein production does the source give for “MNNLINNPLFGILLTLFAFEIGMTIYKKTKIPLLNPLLIAIALVIAVLVSCHISFETYNIGGSFINAFLGPATVILAVPLYKQLQLLKNHFVPIMTGIIVGSFASMCCVIIMGYFLGVNHELIASLVPKSVTTPIGVEVASGLGGIPSITVIAVIITGITGAIIAPMVCKLLKIDHEVAMGVSMGTAAHAVGTTKALEIGETHGAMSSLSIGVAGLITVFLAPPIYMLSALILKFV” here?
**A.** The protein production was “failed”.

**Q.** Which protein production does the source give for “MNNLPLLNDLRVFMLVARRAGFAAAAEELGVSPAFVSKRVSLLEQTLNVMLLHRTTRRVTITEEGERIYEWAQRILQDVDEMMDELSDVRQVPQGTLRIISSFGFGRRVVAPALSALALQYPQLELRFDVQDRLVDLVNEGVDLDIRVGDDIAPNLIARQLAANHRVLCASPQFLARHAPPKQLSDLAALPCLVIKERDHPFGVWQLHSKEGQHAIKVTGPLSSNHGEIVHQWCLDGQGIALRSWWDVRENIASGHLVQVLPDYWQPANVWAVYVSRLATSAKIRTTVEFLRHYFQLHYPQHEPTASAVGRGD” here?
**A.** The protein production was “failed”.

**Q.** For “MNNPKPCEWKSNELSRGYIADYKAFNFVDGEGVRCSLYVSGCPFHCEGCYNKAAQSFKYGKPYTKELEDDILKDIGHESVQGLTLLGGEPFLNTATCLSIVKRIRATYGETKDIWSWTGYTWDEMMQETADKLELLSLIDVLVDGRFEQKLFDPNLAFRGSSNQRIIDVQKSLAAGEVVLYELLEHHHHHH”, which protein production is on record?
**A.** Its protein production is “failed”.

**Q.** For “MNNPQDYSHKECLKASLLETFGFDGFRPGQEQTITQLLKGQSSLSIFPTGSGKSLCYQLTALHLPHLTLVVSPLLALMKDQLSFLASKGIKAASIDSTLKGNEAQTVMAGVRDGDIKVLMVSVERFKNERFRQFIESVPVSMLVVDEAHCISEWGHNFRPDYLKLPSYCQALNISLVLLLTATATRKVKQDMAAKFAIRDEHIVQTGFYRSNLDLSVLPVTQAHKNKQLEQIISAQQGAGIVYVTLQHSAETVAQYLKQQGINACAYHAGFDSDTRSQIQQDFMAGKIQVIVATIAFGMGIDKSNIRFVIHYDLPKSIENYSQEIGRAGRDGLPSQCFTLANLDGLNTVENFVYGDTPEFTGIEMLLNTIKSEVITSTHVGISDNRSEGKWELQILQLSNAVNIKQLPLKTLLVQLELAGVIEPLYAYFADFKIKLLKPKAEIINSFNDQRKDFLQRIFNATDFKKVWGSLNFDTLLQDQSIERNRVIAALEYLQEQQLIVLETKGMTEVFNIKLNELADPSLCQTLSNYFKDNEEKEIKRIATLVRFFQLDTCLTVNLARYFDDTSFDDKRFDGNSSDNNSLDSARNSGTVPQCGHCSVCRGQVAVLEHSQAQIPWPSDEALKQGMTELAERLSGKINQPLSIESFCRFFAGMSVPLFGRNKVRQLSGFGVCEQQRYQAILEKLASLSK”, which protein production is on record?
**A.** The protein production was “failed”.

**Q.** For “MNNSAFTFQTLHPDTIMDALFEHGIRVDSGLTPLNSYENRVYQFQDEDRRRFVVKFYRPERWTADQILEEHQFALQLVNDEVPVAAPVAFNGQTLLNHQGFYFAVFPSVGGRQFEADNIDQMEAVGRYLGRMHQTGRKQLFIHRPTIGLNEYLIEPRKLFEDATLIPSGLKAAFLKATDELIAAVTAHWREDFTVLRLHGDCHAGNILWRDGPMFVDLDDARNGPAVQDLWMLLNGDKAEQRMQLETIIEAYEEFSEFDTAEIGLIEPLRAMRLVYYLAWLMRRWADPAFPKNFPWLTGEDYWLRQTATFIEQAKVLQEPPLQLTPMY”, which protein production is on record?
**A.** The protein production was “not failed”.

**Q.** For “MNNSTQTAPDSGNTLVISNVHLLLSDGWKNDTCLQVTEGVITAIGQDVVQGNSQVIDAGGGYLLPGIIDLHGDAFERHITPRAGTLFPLDLALAANDASLVANGITTFYYSITDGFEPGPRSRETVRKLLLALEELMPRFSCQAKVHIRHEKVNTEGHDELVDWLRNGRVHMLSLNDHLPELDNERAVKRYLAGLQRRVTMDDDATQEFLSSLQGRRELGEEQTRALASLALASGVSLSSHDDHGLEDVARNVQLGTAIAEFPMDAQTALESRKSGISVLMGAPNLVRGGSHVGAISVRDAIAEGLVDILCSDYHYPSLFTAPFVTARHDLLPLADAWKMVSENPARAAGMGDRKGQIAPGYDADLLLLSELDGSPLSLQATFVGGTPVYQREGQWQKQPLAAEAGGVVV”, which protein production is on record?
**A.** The protein production was “failed”.

**Q.** With “MNNTPVEPVRLTPDNPLVSVVIRTKDRPKRLAEAVRSVREQTHRPLEVIVVNDGGWPLPEEALKEQAGDVELILIQLEQNQGRSIAANTGLQAATGRYLCFLDDDDRFLPDHIELLSSCLEHIEHRVCYSDAELCWQVYNVETGEFDIVNRQVFGSRDFNLAELLCGNYIPLNTLLFDRQVLLQVGGFDPQFDIYEDWDLLLRVGSLYPFYHLPRVTAQYNQWSKDHQNFYNHFSQTGQAPLLHITGYDRLIEKNRHLFSADAARHLLSVINRLRAIEAELAQRDAVPAESPLTRLTAQLEQTLATIGPSFATLEGRLADLDACQRDALVSATSKLNEGVSDLDGLRSQVAHLCMEFENASGKIDTSQAELQKTATLLVQTQNLLEDYRKEIARTTELNRLISERDSELRTLRQTIARNEAEITALHKERNEANATISALDEKVAHAETEKASLHQIIAQTEARLASVYGSTSWRIAAPLRAVSVAVRWLLRNTRRAFLLMWWLCTGQYARATNHAFPHLWRHVPPRLKMIIPPRLAGSVKRRLHLADITAPRPLENQPDNSHPDTTAEAHVTLDVPERHYVDLSSEPVAHTPIKAIAFYLPQFHTIPENDKWWGEGFTEWTNTRKGKPLFDGHHQPRVPLHLGYYNLENIEVYAQQVQLARKAGLYGFCFYFYWFGGKTLLEKPLLNMLANPQIDQPFCLCWANENWTRRWDGLDDDILIAQHHSEEDAIAFLRYINTYFRDDRYIKIDGKPLLLVYRPSIIPDITHIQEVWRKHATELGWPGIYLVSAQTFGQKDPRDFHFDAAVQFPPQHAAPCAAFHSETPNLADDFEGCVFDYHNVATQFCDSPEVDYKLFRSVTLAWDNSARRGKRATILRNFSLTSYAQWLLTACKATLADHNLTENERLVFINCMERMGRGHLSGAGHQIWLWIPGSHKKGAECILGWKTQAIRNRSKL” as the sequence, how does the protein production read?
**A.** The protein production was “failed”.

**Q.** With “MNPADWIDTGAVPPRPLPAKVDAALAYLAEALGHPVYAHWTLTRIKRRYGSLADAKAAQPTVLKLLLTHDGAVEYWERGRLRTAPADQAPSPDAVLARLLHTHRRRFRSADASANAGAVPATAQTTGLVANPWLAAHSHADHAWLARTGRFAQPQAAANTLGAVDDAQALALFLRDRTGRSSHTLRAYGAELRRLMRWCGTHGFGPFSDLTRQQLLAYRHTLEHGSSGTANTTPPLSEATRTRALAVVASLYGYWYATGYLHANPAAGLSAGSRARSGFVPTRLIPSALLDACDAWLDANSAGDLLPALRQRAIWALYRYAGVRLAELAWSAETALPRLEAEAPGRWTLYVCGKGRKVRAIPLPAQCMVVLRAYRRARGLPPEPSAHETLPVIHGSKGEALQQTGLYREIKAIFAVVADGLQAREPAKAMLLRAASPHWLRHAYARTLVVDHQVPLPAAQALLGHASVQTTAAYAKTDLTQLRAFVDATFADDVP” as the sequence, how does the protein production read?
**A.** Its protein production is “failed”.

**Q.** Which protein production does the source give for “MNPAPFLLLGGALAWLTLYLLGGRKVKAGEFILGAIIFPLSITLQNIVQQLPLLWVGIRPDITSLGTSEIIAISIWMGLIAGIFQELFKYIFVRGKSAGYAFSVGLGFAISEVIFITALVTLSAKGGTPSQPFATNLLSLAERYLVVLFHVGTAIMLTQGTRKVLIEVIGLHALIDSMAAYYQLMSAVYIKTNKIYMIPRILLLTEIVLAVITVIVLIASLPKISQVKEEKEEVIW” here?
**A.** The protein production was “failed”.

**Q.** Which protein production does the source give for “MNPAYRKAMLESEIQKLLMEALQQLRDPRLKKDFVTFSRVELSKDKRYADVYVSFLGTPEERKETVEILNRAKGFFRTFIAKNLRLYVAPEIRFYEDKGIEASVKVHQLLVQLGYDPLKDKEKKEEDKEEE” here?
**A.** Its protein production is “not failed”.

**Q.** Which protein production does the source give for “MNPEPRCPCVLLLDTSGSMQGAAIEALNQGLLSLKDELMKNSIAARRVEIAIVTFDSHINVIQDFVTADQFNPPILTAQGLTSMGAGIHKALDMVQERKSLYRANGVAYYRPWVFMITDGEPQGELDHLVEQAALRLQGDEVNKRVAFFSVGVENANMTRLNQIAVRTPLEHHHHHH” here?
**A.** Its protein production is “failed”.

**Q.** For “MNPFTYSKPTDITAAVNLSGPATRFIAGGTNLLDLMKENVATPEHLIDITGLPLREVSETASGGLMIGALVSNADLAYHPLIEARYPLLSKAVLAGASPQLRNMASTGGNLLQRTRCYYFYDTGVPCNKREPGSGCPAREGLNRIHAILGASDECVATHPSDMCVALAALEAVVHVEGRAGRRTIEFADFHRLPGDAPQRDNQLADDELIIAVELPAQGFASHNAYLKIRDRASYAFALISVAAAIDLDGDVVRDVRLALGGVAHKPWRDKAVEALLIGKPVTREHFAAAADAMLEDAKPLEHNGFKVRLARRAIIRALSDAATGGSAL”, which protein production is on record?
**A.** The protein production was “not failed”.
